Target: BCMA and CD138 on H929 cells
Test: flow cytometry on H929 cells, sheep antihuman Ig-FITC secondary

B1: bi-specific CD138/BCMA-IgG (dual CD138 scFv - 218S linker - BCMA scFv fused with a human IgG Fc) (bispecific antibody, not shown: a dimerising Fc or GST)
chain: DIQMTQSTSSLSASLGDRVTISCSASQGINNYLNWYQQKPDGTVELLIYYTSTLQSGVPSRFSGSGSGTDYSLTISNLEPEDIGTYYCQQYSKLPRTFGGGTKLEIKGSTSGSGKPGSSEGSTKGQVQLQQSGSELMMPGASVKISCKATGYTFSNYWIEWVKQRPGHGLEWIGEILPGTGRTIYNEKFKGKATFTADISSNTVQMQLSSLTSEDSAVYYCARRDYYGNFYYAMDYWGQGTSVTVSSGSTSGSGKPGSSEGSTKDIVLTQSPASLAVSLGDRATINCRASESVSVIGAHLIHWYQQKPGQPPKLLIYLASNLETGVPARFSGSGSGTDFTLTISSLQAEDAAIYYCLQSRIFPRTFGQGTKLEIKGSTSGSGKPGSSEGSTKGQVQLVQSGSELKKPGASVKVSCKASGYTFTDYSIQWVRQAPGQGLEWMGWIQTETREPAYAYDFRGRFVFSLDTSVSTAYLQISSLKAEDTAVYYCALDYSYAMDYWGQGTLVTVSS
  percent of H929 cells stained ("efficiency"): 84.8%

— patent US20180022815A1
